In patent US8552157B2, “c-Kit antibodies and uses thereof” (ImClone LLC, priority 2011, dated 2013):

Experiments:
[1] = tested on: MALM-3M human melanoma cell line xenograft; experiment: Xenograft tumor growth inhibition, MALM-3M; type: in vivo, athymic nude mice
Experimental: Briefly described, c-Kit-dependent human cancer cell lines are expanded in culture and then are injected subcutaneously into the rear flank of athymic nude mice (Charles River, Wilmington, Mass.) with 2-10 million cells per mouse. Anti-c-Kit mAbs are diluted in PBS, pH 7.2, and administered by intravenous injection at 4 or 40 mg/kg. […] Furthermore, treatment groups may include appropriate chemotherapy drugs or approved RTK inhibitors alone or in combination with the antibodies of the present invention. Antibodies and saline control are administered three times per week for four weeks Inhibition of tumor cell growth is determined by three dimensional caliper measurement of tumor volume twice weekly during the course of treatment. Tumor volume may be calculated as follows: Tumor volume(mm^3)=(length of the tumor)(width^2 of the tumor)(π/6), where the length of the tumor is the largest dimension of the tumor parallel to the skin surface and the width is the largest measurement perpendicular to the length, parallel to the skin surface. Body weight may also be measured frequently during the course of treatment as a general measurement of toxicity. T/C %, and P values are calculated by RM ANOVA where, T/C %=[(Treatment Volume/Initial Volume)/(Control Volume/Initial Volume)]*100 and the P value is calculated in relation to saline.

c-Kit in GIST882 cells = target: T1, c-Kit in GIST882 cells (Homo sapiens, UniProt P10721, K642E); experiment: In vitro c-Kit degradation assay (Example 7, western blot), GIST882; type: cell-based; conditions: SCF 100 ng/ml, 12, 24, and 48 hours at 37° C., data not shown
T1 construct: endogenous in cells; host or cells: GIST882 (human gastrointestinal stromal tumor)
T1 sequence (P10721 26-976 K642E): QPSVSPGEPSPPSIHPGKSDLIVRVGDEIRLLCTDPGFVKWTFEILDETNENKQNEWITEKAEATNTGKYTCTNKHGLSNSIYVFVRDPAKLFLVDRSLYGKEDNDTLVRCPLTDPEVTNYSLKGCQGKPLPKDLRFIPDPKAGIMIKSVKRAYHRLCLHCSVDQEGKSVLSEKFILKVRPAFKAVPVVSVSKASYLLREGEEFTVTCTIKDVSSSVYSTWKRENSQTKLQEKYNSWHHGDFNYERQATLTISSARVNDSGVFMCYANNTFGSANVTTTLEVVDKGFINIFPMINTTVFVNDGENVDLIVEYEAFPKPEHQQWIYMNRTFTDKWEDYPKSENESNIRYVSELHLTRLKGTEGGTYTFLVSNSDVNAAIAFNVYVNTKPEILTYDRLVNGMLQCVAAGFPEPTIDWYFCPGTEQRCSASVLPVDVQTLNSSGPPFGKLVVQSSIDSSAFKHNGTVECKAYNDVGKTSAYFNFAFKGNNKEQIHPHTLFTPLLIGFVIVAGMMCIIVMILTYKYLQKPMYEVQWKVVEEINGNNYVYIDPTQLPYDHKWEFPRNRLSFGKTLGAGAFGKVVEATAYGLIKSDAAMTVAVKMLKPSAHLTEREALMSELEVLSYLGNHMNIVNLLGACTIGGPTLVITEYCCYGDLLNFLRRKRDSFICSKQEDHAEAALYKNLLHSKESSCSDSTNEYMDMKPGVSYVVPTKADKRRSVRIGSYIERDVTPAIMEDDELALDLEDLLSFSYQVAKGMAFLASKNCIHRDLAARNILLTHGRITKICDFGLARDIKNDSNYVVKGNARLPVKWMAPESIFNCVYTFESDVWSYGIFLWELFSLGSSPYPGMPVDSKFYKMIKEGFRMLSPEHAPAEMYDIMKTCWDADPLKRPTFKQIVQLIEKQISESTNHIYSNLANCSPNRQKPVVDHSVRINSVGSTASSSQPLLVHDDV

c-Kit in Mo7e cells [2] = target: T2, c-Kit in Mo7e cells (Homo sapiens, UniProt P10721); experiment: In vitro c-Kit degradation assay (Example 7, western blot), Mo7e; type: cell-based; conditions: SCF 100 ng/ml, 12, 24, and 48 hours at 37° C., data not shown
T2 construct: endogenous in cells; host or cells: Mo7e (human megakaryocytic leukemia)
T2 sequence (P10721 26-976): as the sequence (P10721 26-976 K642E) above, with E617K counted along it
Experimental: An in vitro cell based assay may be used to measure the ability of c-Kit mAbs to induce degradation of c-Kit as measured by the amount of total c-Kit found in cell lysates after treating tumor cells with a c-Kit mAb at 37° C. Briefly, human cell lines expressing c-Kit (e.g., Mo7e and GIST882) are plated in a 6-well dish at a density of 3×10^6 cells/ml in 3 ml of serum-free media. […] One well of cells is left untreated as a control. Immediately after the treatment period, the cells are washed in cold PBS, lysed in 100 μl lysis buffer (50 mM Hepes pH 7.5, 150 mM NaCl, 10 mM NaPPi, 50 mM NaF, 1 mM Na3VO4, 1% Triton X-100, protease inhibitor cocktail). After a ten minute incubation on ice, the cells are centrifuged at 12,000 g for 15 minutes at 4° C. The supernatant is collected and subjected to western blot analysis under reducing conditions. […] As expected from previous reports in the scientific literature,
degradation of c-Kit was not observed after treatment of the tumor cells with SCF (100 ng/ml) for 12, 24, and 48 hours at 37° C. (data not shown).

c-Kit in Mo7e cells [3] = target: T2, c-Kit in Mo7e cells; experiment: In vitro c-Kit degradation assay (Example 7a, western blot), Mo7e; type: cell-based
Experimental: Human cell lines expressing c-Kit (e.g., GIST882, Mo7e, and Malm-3M) are plated in a 6-well dish at a density of 3×10^6 cells/ml in 3 ml of serum-free media for all but one Mo7e assay that uses 10% serum. […] One well of cells is left untreated as a control. Immediately after the treatment period, the cells are washed in cold PBS, lysed in 100 μl lysis buffer (50 mM Hepes pH 7.5, 150 mM NaCl, 10 mM NaPPi, 50 mM NaF, 1 mM Na3VO4, 1% Triton X-100, protease inhibitor cocktail). After a ten minute incubation on ice, the cells are centrifuged at 12,000 g for 15 minutes at 4° C. The supernatant is collected and subjected to western blot analysis under reducing conditions. […] SCF induced degradation is not apparent when using 10% serum. (Replicates of GIST882=1, Mo7e=3, and Malm-3M=1).

Compound: CN(C)/N=N/c1[nH]cnc1C(N)=O [DTIC, dacarbazine, reference compound]
- T/C % ([1]; Table 13 upper part, DTIC 80 mg/kg, P value 0.0021): 68%

Compound: Cc1ccc(NC(=O)c2ccc(CN3CCN(C)CC3)cc2)cc1Nc1nccc(-c2cccnc2)n1 [Imatinib, imatinib, reference compound]
- T/C % ([1]; Table 13 lower part, Imatinib 100 mg/kg, P value 0.0001): 61%

Compound: CCN(CC)CCNC(=O)c1c(C)[nH]c(/C=C2\C(=O)Nc3ccc(F)cc32)c1C [Sunitinib, sunitinib, reference compound]
- T/C % ([1]; Table 13 lower part, Sunitinib 40 mg/kg, P value 0.0004): 68%

Compound: SCF: c-Kit ligand stem cell factor (SCF) [reference compound]
- degradation of c-Kit, in words (c-Kit in GIST882 cells): not observed
- degradation of c-Kit, in words (c-Kit in Mo7e cells [2]): not observed
- degradation of c-Kit, in words (c-Kit in Mo7e cells [3]; SCF 1 ug/ml and 100 ng/ml, 24 hours at 37° C., 0% serum): Degradation of c-Kit is observed
- degradation of c-Kit, in words (c-Kit in Mo7e cells [3]; SCF, 10% serum): not apparent
